From patent publication US20250122266A1 (TEXAS A AND M UNIVERSITY SYSTEM, published 2025)

B1: GFP-2xsunbody (dimeric concatemer of sunbody) (VHH, not shown: large carriers)
chain: LATTLERIEKNFVITDPRLPDNPIIFASDSFLQLTEYSREEILGRNCRFLQGPETDRATVRKIRDAIDNQTEVTVQLINYTKSGKKFWNLFHLQPMRDQKGDVQYFIGVQLDGTEHVRDAAEREGVMLIKKTAENIDEAAKELKLMAQVQLVESGGGLVQAGGSLRLSCAVSGRPFSEYNLGWFRQAPGKEREFVARIRSSGTTVYTDSVKGRFSASRDNALERIEKNFVITDPRLPDNPIIFASDSFLQLTEYSREEILGRNCRFLQGPETDRATVRKIRDAIDNQTEVTVQLINYTKSGKKFWNLFHLQPMRDQKGDVQYFIGVQLDGTEHVRDAAEREGVMLIKKTAENIDEAAKNMGYLQLNSLEPEDTAVYYCAMSRVDTDSPAFYDYWGQGTQVTVSTPRSLATTLERIEKNFVITDPRLPDNPIIFASDSFLQLTEYSREEILGRNCRFLQGPETDRATVRKIRDAIDNQTEVTVQLINYTKSGKKFWNLFHLQPMRDQKGDVQYFIGVQLDGTEHVRDAAEREGVMLIKKTAENIDEAAKELKLMAQVQLVESGGGLVQAGGSLRLSCAVSGRPFSEYNLGWFRQAPGKEREFVARIRSSGTTVYTDSVKGRFSASRDNALERIEKNFVITDPRLPDNPIIFASDSFLQLTEYSREEILGRNCRFLQGPETDRATVRKIRDAIDNQTEVTVQLINYTKSGKKFWNLFHLQPMRDQKGDVQYFIGVQLDGTEHVRDAAEREGVMLIKKTAENIDEAAKNMGYLQLNSLEPEDTAVYYCAMSRVDTDSPAFYDYWGQGTQVTVSTPRS
notes: also called tandem sunbody
B2: GFP-sunbody (anti-mCherry nanobody LaM8 with LOV2 at S0 and S3) (VHH, not shown: large carriers)
chain: LATTLERIEKNFVITDPRLPDNPIIFASDSFLQLTEYSREEILGRNCRFLQGPETDRATVRKIRDAIDNQTEVTVQLINYTKSGKKFWNLFHLQPMRDQKGDVQYFIGVQLDGTEHVRDAAEREGVMLIKKTAENIDEAAKELKLMAQVQLVESGGGLVQAGGSLRLSCAVSGRPFSEYNLGWFRQAPGKEREFVARIRSSGTTVYTDSVKGRFSASRDNALERIEKNFVITDPRLPDNPIIFASDSFLQLTEYSREEILGRNCRFLQGPETDRATVRKIRDAIDNQTEVTVQLINYTKSGKKFWNLFHLQPMRDQKGDVQYFIGVQLDGTEHVRDAAEREGVMLIKKTAENIDEAAKNMGYLQLNSLEPEDTAVYYCAMSRVDTDSPAFYDYWGQGTQVTVSTPRS
notes: also called S0+S3; anti-mCh GFP-tagged sunbody

Columns and labels:
[1] = molecular target: T1, plasma membrane targeting mCh (mCh-CAAX); assay: cytosol-to-plasma-membrane translocation in HeLa cells under light
T1 construct: also called mCh tethered to PM

[2] = molecular target: mCh tethered to early endosome [EE]; assay: cytosol-to-early-endosome translocation in HeLa cells under light
[3] = molecular target: T2, NE-tethered mCh-lamin A (UniProt P02545 1-664); assay: NE/NP ratio of GFP signal in HeLa cells, before and after light
T2 sequence (P02545 whole entry): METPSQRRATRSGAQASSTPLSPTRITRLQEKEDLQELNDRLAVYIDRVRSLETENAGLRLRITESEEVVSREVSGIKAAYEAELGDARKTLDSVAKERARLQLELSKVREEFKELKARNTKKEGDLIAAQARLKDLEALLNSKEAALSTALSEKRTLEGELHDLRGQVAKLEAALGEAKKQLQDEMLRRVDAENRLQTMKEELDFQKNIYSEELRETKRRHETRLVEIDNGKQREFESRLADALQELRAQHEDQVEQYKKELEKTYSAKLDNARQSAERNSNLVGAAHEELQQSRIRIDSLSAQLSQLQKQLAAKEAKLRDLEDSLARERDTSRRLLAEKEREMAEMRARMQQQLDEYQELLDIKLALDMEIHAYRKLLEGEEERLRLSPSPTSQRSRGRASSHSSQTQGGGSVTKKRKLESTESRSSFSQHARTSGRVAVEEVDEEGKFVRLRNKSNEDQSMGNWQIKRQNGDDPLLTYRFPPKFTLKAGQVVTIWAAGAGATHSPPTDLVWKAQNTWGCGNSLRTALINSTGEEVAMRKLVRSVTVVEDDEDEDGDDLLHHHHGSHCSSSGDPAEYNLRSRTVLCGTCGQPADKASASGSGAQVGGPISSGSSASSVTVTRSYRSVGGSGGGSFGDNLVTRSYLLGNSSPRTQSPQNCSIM

[4] = molecular target: T2, NE-tethered mCh-lamin A; assay: nucleoplasmic GFP signal in HeLa cells over dark-light cycles

Binder | fold increase in the signal-to-background ratio against 1x sunbody [1] [fold] | fold increase in the signal-to-background ratio against 1x sunbody [2] [fold] | light-induced change in the NE/NP ratio [3] [%] | half-life of light-triggered translocation to the antigen (t½, on) [4] [s]
B1 | > 2 | > 2 | – | –
B2 | – | – | > 80 | 2.6
